A protein production outcome set (Wang et al. 2014)

Assay: label from the status in PepcDB records

MEYYQPVEINVLSAQDLNSINLLFRPTVYVSVSVTRGSRDKQVTPAAAWDKKFLRWNYRMKFYIEDDKVRRNESVFVFQIKCKRFFGSDQVVGKLFIPGCRLGVWGNIRHEPSAPCEDDIYA
protein production: failed

MFADNTLTPKEAVRLCALGTIASQPMRYSELAGSVRHFTSRIMGPSLELMGISIELLRYEGLVEAVDDGQGMEDDAMLAISAAGRRELHSLLTARLRPGSDLSKLVVALKMRFLGLMEAEERAHQIDLLIEGVDSELARLADLRGSDGEGGSALAAWLDHDMALLESRLAWLEDFRARL
protein production: not failed

MFAEYLDGRMLMQINAGAFLIALLCLRGDRQRTLDRWLFGAAAGVLLLVYYVWRFTDTLPEWRMDFPSLWAHAFFGFESLTIAYTLISIGIMTRTSDHSAEADAGETALRRGREAPPVDIFIATYNEGLDVLEKTIVAALDIDYPNFRVWVLDDTRRDWLREFCDQVGARYVTRPDNAHAKAGNLNNGLRHSAELDGGAPFIMVLDADFAPNRNILLRIVGLFDDPQVGVVQTPQFYYNADPIQYNLRSTECWVDEQRAFFDVMQPSKDAWGTAFCIGTSFVVRREALDRIGGFPIGTVTEDIHLTYKLMPHGYITRWLNERLSVGLSAEGLPEYISQRSRWGLGTIQVALTADGPLRGPGYTLRERLHYVHGLLHWLSRPFTLMLLAGPLLYWYFNVPTLYGEPLQFLAFGVPALLLYWAYSIWITGARAMPIFTEVTQIVAAMAVSATLVSAIFKPFGRPFKVTNKGLDRSKLVVHGKFAAFYGALFVLAAMGLGRAVAADGTASGVVFNIGWTVISMVLYLASLLVCFELPRPRKEERFPHRERARLCIYGSDGLPREFDGVTQDMSCNGIGLISDAAGRVEAGATGAVWLSELGWVTCRVARTQGHLLGIELFPDMAGRHRLIRMLFGEPAHNIAHRGRPRVAIVQLLRRAFTG
protein production: failed

MFAMPTFELDALTTLALALILLGVGAQLKKRSRWLTQLCVPAPVIGGFGFALIVWLLRDQQLLAIKLDTAIQTPLMVAFFTTVGLGGSLGLLRRGGKILFVYLGACWSLALLQNLVGVGAAKALGIDPLLGIMAGAVSLEGGFGAAAAFGPIAENLGAVGATTAALASATFGMVAGGLLGSPLARWLIERNRLQIQADQVSTLQHLESAAQGSVAPLDAPTLLRLLTCILLIMVLGFWIGSALNEHLGIVLPSYVGAMFVAIILRNLNDRARIIDIPDSAVSTLGDVCLGVFLTMAMMSLKFWELEQLGLPLLVILVVQVLVMVLLCVFLLFRLFGGNYDAAVLCAGFMGHGLGATPNAVANMGAICDHYKVFSYKAFIIVPLCGAVLIDIVAIPLITWFINAFA
protein production: failed

MFDSVLQQSMQQWLETSLGQYVLEQEQRYFDRVVTDIFGYNATQIGFSGFDFLRNNRMPFKFAFGVRDGASVYAHPHFLPIKSSSIDLVLLPHTLEFNSNPHQILREAHRVLIPEGKVIISGFNPFSLWGMRQRMAKSKTDFPWCGRFIALPRMQDWLELHNFEIVAGQFGCYVPPCTREKWLSRLRFMEAAGDRWWPIAGGVYFLQAVKHECGLHIITPRWEDSPAKRGTVVVPQIERGHRMNNLEVSTVPWREKAGGGLIENRKYGVQYSVNNRDV
protein production: failed

MFENESLSFEEQTIIQAAERYVQQELANEASGHDWWHIYRVTQLAKTIAEKEQANLFLCILTALLHDIGDEKFNESEEAGLLKVQQWLEANNVSTEQTNHILSIIANMSFKGGNTGKTVTTLEGKVVQDADRLDAIGAIGIARVMAYSGNKGRLIHDPHKQPREQLTQEEYRNGEDTAIMHFYEKLLKLKEQMNTNYGRLLAEKRHQFMELYLEEFYQEWDGHRLEHHHHHH
protein production: not failed

MFERLPVPLSRHERAGPPMPEIGPYTLHTVDTGRFGLDGGAMFGIVPKPLWSQRIEPDEQNRIPLSMRCLLLIGDGRVVLIDTGIGDTFEDTKFQDIFAVDHSGATLEGSLAAHGVAPVDVTDVVLTHLHFDHAGGSTRRIDGEPAVAFPNATYHVQRRHWNWAADPNPKEEQSFRSDTFAPIEEAGQLNLVEGETTLLPHVDVSLVHGHTEAQQTVTVRDDETTLVYVADLLPTTHHLSPAWTMAYDVRPLRTIEEKGEFLEQAADSEWKLFFEHDPEVAVADVERTDRGVQVVNERSLDAL
protein production: failed

MFFEIALIGTTASGKTYIANTLAREFNAVVLSLDSLCVYKEINIASAKPSQDDLASIKYFGVNLLSVNEHFNVELFIREYQKAKEFALARNLPLIIVGGTGFYLKTMIDGLSEKTLESKSSLNNDEIYALLLNIDPNYKIEKNDTYRLKKWLGIYEQTREIPSEFLKRTQKTGVLKDIEIYELAWDKEILKKRIKTRTKEMLDNGLLDEAKILFSKFDHKLKALNSIGLKECKEYLDGEISFKELENLITIHTTQLAKRQRTFNKKFQSKALEFDKALATLRMKFSIEKLEHHHHHH
protein production: failed

MFFKEIHHVAINASNYQATKNFYVEKLGFEVLRENHRPEKNDIKLDLKLGSQELEIFISDQFPARPSYPEALGLRHLAFKVEHIEEVIAFLNEQGIETEPLRVDDFTGKKMTFFFDPDGLPLELHE
protein production: not failed

MFFLLLTPFNAAASETNSDDATADAKNLSGTNAADTVVSQIIGASVYIEGEIYNNEYATISVTTKNEGDKSSEGHIIVAFPNNEEILSKEGSGDRVDIYPSGSSIETKDGTKIDSSEYLFVDLVKYDWETGKNETLNLKVKPNKGSEEIVYLVRAELMNDATGDYERYPGILSESSDVDQQGWYVYNNSFGVSGDPDLMIEDISWEPENPHENENVTFKVTLKNVGLASSGNCSVKCYLDGNEISFSTVSGLEADSTTSFTFNWVPTSSGSMDLKVVVDSEGQFVEFTEENNEKTGIFKVISYTNSSSPSSPSPGSGSSSSSSSSGGGAGGSPEPASNVEIKELAQQFVSNGNHAKFIFAKNVTSIAYIEFDPKKTVGKTTTIVETLKGKSTLVTELPTGKVYKNTNIWVGNEGTASSENIENAVVGFKVEKTWINSNGVDSSSVKLWAFEDEKWVELPTSQTDEDEDYVYYEADTPGFASFSIMALYPEENTEGTSLPLGSYVEDKDTKAVSETSEEESEVVDSEAGENNSGSMKKGLLAIGMLAAVILAGYVISRKQD
protein production: failed

MFFLSDHDTLISSIEAIGASFAVFEFDPQSVAFELVSCNSRYEDLMGYSSAKALGQPLTTIFPRYIHNPLKEAFIHCKNERIALETEIVLDYKGQERCWRSIVSPIVNSADEKFRIIQTCVEITEKKVLEKQLNLSMKRFEAVVNNAYDGIITIDEQQNVKLFNEAAQSMFGYSEQEIMGQPLTKLLPEKYQAKHHGYVEGFKRSQVDSRPMQTRAAVQGLRKDGSEFAIEVTISKIRIADNVEFTAVIRDISEKNQLLEELILSSRRDPLTELYNRRYFTELLHSEITRSRRFKRGFSLLMLDIDHFKSINDRYGHACGDAALIAFSKAVTNSIREVDTICRWGGEEFLVLLPEIPKVTAMVVAEKIRKNIENLETIYEGDLIKVTVSIGLEYFSGDAIEMSSMINKVDQILYRAKDTGRNKISTEI
protein production: failed

MFFSKLFRKDAASCLEKGEKLLAAGRFAEARLSLEDALERLDAHSPEGATTAAVIREKMVVAGNRLAEMNLQEAEHCLKSGEFAKAEEHLNLTLDLADDVTIRDKAVKSFALLEKQIPHVHHHEKKGGCGGCGGSTSQHSENIELEDDGLNDMDRFELLVRPLPGDLPERYADLGEEFAGGYLAAHGGDQMTAEKVFERLLASGESDILLYELAILSHQGGDGRRCETLLRRALALNDTNPLCNLSLVQLLTENGRFTEAVPLLERMVERDILPDQAGMFLGEIYRVQGESDRAIAQFSQLLSTPLKREAAERLVGLLETTGRSQEAALVAKQYLKGCC
protein production: failed

MFGAKKNNTKIIEQLEKKCNGLGDILRSIGNTMAVIEFTTDGVILEANQNFLTTMKYSLSEIKGKHHSMFCLPEVVNSSAYSDFWKDLRDGKARSGLFRRIAKGGIDVYLEANYLPISDNNGYVYKIIKFANDITQRHYEMLDLRNTIAAANRSMAIIEFKPDGTIITANENFLRAMDFNIDEIKGKHHSMFCDSNYRHSKDYVQFWEDLREGKFQSGKYIRYGRNNKKVYLEASYNPVKNDDGKIYKVIKFATDISEQVKKDQEKLRLISELAEKNDNLTQDGDRVIENTVSNVQNIADMMSQSSNLVSSLNQQSDEIKSIIQTISDIADQTNLLALNAAIEAARAGEHGRGFAVVADEVRNLAERTGHSVNEITTTINSIRNVTSQVVESIKSGLEDVNQSVELAKEARECMEKIRESSAEVAKAMS
protein production: failed

MFGLEAIDLARIQFAFTVSFHIIFPAITIGLASYLAVLEGLWLKTNEEVYRDLYHFWSKIFAVNFGMGVVSGLVMAYQFGTNWSHFSDFAGSITGPLLTYEVLTAFFLEAGFLGVMLFGWNRVGPGLHFFATVMVAIGTLISTFWILASNSWMQTPQGFEIVDGRVIPVDWLAVIFNPSFPYRLLHMSVAAFLATAFFVGASAAWHLLRGRDNPAIRKMLSMAMWMALIVAPVQALIGDAHGLNTLEHQPAKIAAMEGHWDNSSGEPTPLILFGWPDMQREETRFKVEIPVLGSLILKHSLTEPIPALKDFPPEDRPNSTVVFWSFRIMAGLGMLMILVGVWSLWLRWRGQDKLFNSKAFLRLTLLMGPSGLIAILAGWFTTEMGRQPWVVYGLMRTADASSAQSVTQMSLTLLTFVVVYFSLFGVGIGYMMRLVRKGPVTHEGRETNPGGAGQKRTPARPLSAAGEGFDEEHDGHAQAADRDQDKRN
protein production: failed

MFGLVDAVSFYARAEKVFDPSIRHKPVVVLTNNDGCICAVCPIARQLGVPKFVPYFKVKSFLAKHGVVVRSSNYELYADLSERMMNVIARYSDNHYVYSIDESFLHFKNFSCVDNWHEYGHVIRKAVWRETRLPVGVGFGATLTLAKAANHASKKLSGFDGVAVIDDKASRKEILSRMSLTEVWGIGSKLGKRLSILGLKNGWDLANQSPKAMRGQFGVVVERTVNELNGMPCLQWDEIGQDKQEIFSTRSFGQRVTDGHALKAALSSHASIVGAKVRRQGSLIKRLVIFASSSPHDDSYYKKSVIYEFPIATDNILKLVGAISYVFDNIYRQGVSFYRCGVGGVELENSQFQQQDMFSLSVNNPPLMKCYDQINHRYGRGAVEVAIAEKNEKWAMRRNFLSPRSTSNWSEIPKINCLEHHHHHH
protein production: failed

MFHFSLSPRRTGRGARPRARLGAMLALAFLAGGLTAGPGNAAEGAGATAERQYCACMALARSRPDQAFEKAGQWKALGGGVPARHCEAVALLGLKEYGEAARRLEALAEDVKLARGLRVDLLTQAGQAWLAVGDLSRAYANQTTALQLAGARAQSGAPALSSVLPDLYIDRAVTLAQAGRDDEATTDLTKALALQPASVTALVLRASAQRRQGRLTAARADAEAAVKRAPNDAEARLERGDVRLALGDRDGARADWLKVLELAPREGAADAARARIETLDLKVR
protein production: failed

MFIGGAIISFLFLFGYMWKEAHSNRIRHVTLSFPHFPDNGPPLTIFFISDIHRRSVSCRMLETVKGKADLVVIGGDLAEKGVPAARVRENVRRLQTVAPVYFVWGNNDDEVDYDLQSLLEEERVYVLKNKAEVWEHGGVPIALIGVGDVSRKEADIARALEHVPPESFRILACHNPAIIARLEDEQHISLVLSGHTHGGQIRLFSFGLYEKGGLKWHGNTALFTSNGYGTTGVPLRLGAPAETHLIKIVPGKLATEKKCLSKTGKTMLEHHHHHH
protein production: failed

MFKALLPQSKQKLQHAKYFAKKMHQASASDQLQSHWHLQQWWILIAGFFLFGSVLVFAFTRPISSTKIEAEYLKEVDPQIYTLLNGEMLTPPPEVDESLISAAIVEANQLEQQYASQHSETNAPSASENLMHHNLIDTQFVDRKWDKMNPRYKQRLLMVFKIMKERYGYELVLLEGYRSPERQNLLSGNPNTTRARGYQSYHQFGLAADVAFKRNGKVVISERDPWAMRGYQLYGEVAESVGLTWGGRWKSIQDYGHTEYRMPGLRKTKEMAEQLIAEGQLTANAAS
protein production: failed
